Source: patent US20210395344A1 (TWIST BIOSCIENCE, published 2021)
Read-outs that look alike come from different tables or passages of the source.

Experiments:
[1] = molecular target: T1, SARS-CoV-2 Spike Glycoprotein S1 (subunit 1) (SARS-CoV-2, UniProt P0DTC2 16-685); experiment: ELISA binding titration
T1 construct: also called S1 Monomer; SARS-CoV-2 S1

[2] = molecular target: T1, SARS-CoV-2 Spike Glycoprotein S1 …; experiment: antibody kinetics, sensorgrams with fits; column S1
[3] = molecular target: T1, SARS-CoV-2 Spike Glycoprotein S1 …; experiment: screening phage ELISA, mean
[4] = molecular target: T1, SARS-CoV-2 Spike Glycoprotein S1 …; experiment: screening phage ELISA, mean; remark: listed apart in the source
[5] = molecular target: T2, SARS-CoV-2 S protein trimer (SARS-CoV-2, UniProt P0DTC2 16-1213); experiment: column Fc/S-T (format not explained)
[6] = molecular target: T2, SARS-CoV-2 S protein trimer; experiment: column DB/S-T (format not explained)
SARS-CoV-2 S1 RBD = SARS-CoV-2 S1 RBD (SARS-CoV-2, UniProt P0DTC2 319-541)
[7] = molecular target: T1, SARS-CoV-2 Spike Glycoprotein S1 …; experiment: column Inhibitor IC50 (assay not explained)
[8] = molecular target: T1, SARS-CoV-2 Spike Glycoprotein S1 …; experiment: column Fc/S1 (format not explained)
[9] = molecular target: T1, SARS-CoV-2 Spike Glycoprotein S1 …; experiment: column DC/S1 (format not explained); clone 1-27
[10] = molecular target: T1, SARS-CoV-2 Spike Glycoprotein S1 …; experiment: column DC/S1 (format not explained)
[11] = molecular target: T2, SARS-CoV-2 S protein trimer; experiment: column DC/S-T (format not explained)
[12] = molecular target: T1, SARS-CoV-2 Spike Glycoprotein S1 …

Row | Binder | EC50 [1] [µM] | Kd [2] [µM] | ELISA (Avg) [3] | ELISA (Avg) [4] | Kd [5] [µM] | Kd [6] [µM] | IC50 (SARS-CoV-2 S1 RBD) [µM] | IC50 [7] [µM] | Kd [8] [µM] | Kd [9] [µM] | Kd [10] [µM] | Kd [11] [µM] | IC50 [12] [µM]
1 | 1-42 (antibody, V domains shown) VH: EVQLLESGGGLVQPGGSLRLSCAASGVTFSSYAMSWVRQAPGKGLEWVSAITGSGGSTYYADSVKGRFTISRDNSKNTLYLQMNSLRAEDTAVYYCAKHGSGTIFGVVIAKYYFDYWGQGTLVTVSS VL: QSALTQPASVSGSPGQSITISCTGTSSDVGRYNLVSWYQQHPGKAPKLMIYEGGKRPSGVSNRFSGSKSGNTASLTISGLQAEDEADYYCCSYASSSTLVFGGGTKLTVL | 0.00792 | 0.364 | – | – | – | – | – | – | – | – | – | – | –
2 | 1-29 (antibody, V domains shown) VH: EVQLLESGGGLVQPGGSLRLSCAASGFTFSSYAMYWVRQAPGKGLEWVSAISGSAGSTYYADSVKGRFTISRDNSKNTLYLQMNSLRAEDTAVYYCARDTNDFWSGYSIFDPWGQGTLVTVSS VL: QSALTQPASVSGSPGQSITISCTGTSSDIGSYNLVSWYQQHPGKAPKLMIYEGTKRPSGVSNRFSGSKSGNTASLTISGLQAEDEADYYCCSYAGSRTYVFGGGTKLTVL | – | – | 23.8 | 23.8 | 0.0193 | 0.0361 | – | – | – | – | – | – | –
3 | 1-53 (antibody, V domains shown) VH: EVQLLESGGGLVQPGGSLRLSCAASGFTFSSYTMSWVRQAPGKGLEWVSVISGSGGSTYYADSVKGRFTISRDNSKNTLYLQMNSLRAEDTAVYYCAREGYRDYLWYFDLWGQGTLVTVSS VL: QSALTQPASVSGSPGQSITISCTGTSTDVGSYNLVSWYQQHPGKAPKLMIYEGTKRPSGVSNRFSGSKSGNTASLTISGLQAEDEADYYCCSYAGSYTSVVFGGGTKLTVL | 0.0103 | – | 21.7 | 21.7 | – | – | 0.0143 | 1.43 | – | – | – | – | –
4 | 1-2 (antibody, V domains shown) VH: EVQLLESGGGLVQPGGSLRLSCAASGFTFSSQAMSWVRQAPGKGLEWVSAISGSGGGTYYADSVKGRFTISRDNSKNTLYLQMNSLRAEDTAVYYCAKDRRFGEFDPWGQGTLVTVSS VL: QSALTQPASVSGSPGQSITISCTGTSSGVGSYNLVSWYQQHPGKAPKLMIYEGIKRPSGVSNRFSGSKSGNTASLTISGLQAEDEADYYCCSYAGSSSFVVFGGGTKLTVL | 0.000523 | – | 24.2 | 24.2 | – | 0.304 | – | – | – | – | – | – | –
5 | 1-27 (antibody, V domains shown) VH: EVQLLESGGGLVQPGGSLRLSCAASGFTFSSYAMTWVRQAPGKGLEWVSAISGSGGGTYYADSVKGRFTISRDNSKNTLYLQMNSLRAEDTAVYYCASSSSWQFDYWGQGTLVTVSS VL: QSALTQPASVSGSPGQSITISCTGTSSYVGHYNLVSWYQQHPGKAPKLMIYEGSRRPSGVSNRFSGSKSGNTASLTISGLQAEDEADYYCCSYAGSYTHYVFGGGTKLTVL | 0.000148 | – | 27.2 | 27.2 | 0.0096 | – | – | – | 0.0096 | 5.52 | – | – | –
6 | 1-12 (antibody, V domains shown) VH: EVQLLESGGGLVQPGGSLRLSCAASGITFSSYAMSWVRQAPGKGLEWVSGISGSGGSTYYADSVKGRFTISRDNSKNTLYLQMNSLRAEDTAVYYCAKHGSGTIFGVVIAKYYFDYWGQGTLVTVSS VL: QSALTQPASVSGSPGQSITISCTGTSSDVGHYNLVSWYQQHPGKAPKLMIYEGTKRPSGVSNRFSGSKSGNTASLTISGLQAEDEADYYCCSYAGSSSFVVFGGGTKLTVL | 0.00215 | 0.0061 | 25.7 | 25.7 | 0.014 | – | – | 0.033 | 0.0061 | – | – | – | –
7 | 1-33 (antibody, V domains shown) VH: EVQLLESGGGLVQPGGSLRLSCAASGFTFSSYAMIWVRQAPGKGLEWVSAISGSGGSTFYADSVKGRFTISRDNSKNTLYLQMNSLRAEDTAVYYCTRPPYGDYGDYWGQGTLVTVSS VL: QSALTQPASVSGSPGQSITISCTGTSSDVGSYNLLSWYQQHPGKAPKLMIYEASKRPSGVSNRFSGSKSGNTASLTISGLQAEDEADYYCCSYAGSRTPVVFGGGTKLTVL | 0.0175 | – | 17.6 | 17.6 | – | – | – | – | – | – | 0.0081 | 1740 | –
8 | 1-32 (antibody, V domains shown) VH: EVQLLESGGGLVQPGGSLRLSCAASGFTFSSYAMYWVRQAPGKGLEWVSAISGSGGSTFYADSVKGRFTISRDNSKNTLYLQMNSLRAEDTAVYYCTRPPYGDYGDYWGQGTLVTVSS VL: QSALTQPASVSGSPGQSITISCTGTSSDVGGYNLVSWYQQHPGKAPKLMIYEGNKRPSGVSNRFSGSKSGNTASLTISGLQAEDEADYYCCSYAGSSTFPVVFGGGTKLTVL | – | – | 17.9 | 17.9 | – | – | – | – | 2.98 | – | 0.0148 | – | 0.0322
